This note sets out measurements from the supplement of paper PMC10567573.

The chains are these.
B1: EIF5 (parent)
chain: KQTIGNSCKACGYRGMLDTHHKLC
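Also: lentivirally expressed fusions sorted by FACS into six bins by GFP to DsRed ratio, PSI derived from sequencing read proportions per bin multiplied by bin number.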

In this series the parent is B1. The series can be described thus: protein stability index of a GFP-peptide fusion (GPS, HEK-293T) (PSI 1-6); higher = more stable. Particulars: c terminus: a fixed tail appended.
As to KQTIGNSCKACGYRGMLNTHHKLC, the protein stability index was 2.88.
The figure for KQTIGNSCKACGYRGMLGTHHKLC is 2.81; for KQTIGNSCKACGYRGMLVTHHKLC it is 2.39; for KQTIGNSCKACGYRGMLCTHHKLC it is 3.19.
To KQTIGNSCKACGYVGMLDTHHKLC belongs 3.15.
The figure for KQTIGNSCKACGYDGMLDTHHKLC is 3.41; for KQTIGNSCKACGYTGMLDTHHKLC it is 3.52.
Take KQTIGNSCKACGYYGMLDTHHKLC: the protein stability index was determined as 2.64.
On to KQTIGNSCKACGYQGMLDTHHKLC, for which the protein stability index came out at 3.35.
The figure for KQTIGNSCKACGYMGMLDTHHKLC is 2.97; for KQTIGNSCKACGYLGMLDTHHKLC it is 2.96; for KQTIGNSCKACGYFGMLDTHHKLC it is 3.14.
In the case of KQTIGCSCKACGYRGMLDTHHKLC, the protein stability index came out at 3.71.
To KQTIGASCKACGYRGMLDTHHKLC belongs 3.1; to KQTIGWSCKACGYRGMLDTHHKLC, 2.62; to KQTIGYSCKACGYRGMLDTHHKLC, 3.92.
To KQTIGTSCKACGYRGMLDTHHKLC belongs 3.66; to KQTIGISCKACGYRGMLDTHHKLC, 3.84.
The figure for KQTIGESCKACGYRGMLDTHHKLC is 3.62.
With KQTIGHSCKACGYRGMLDTHHKLC, the protein stability index is 3.03.
To KQTIGNSCKACGYRGMLDTHHKLN belongs 1.91.
To KQTIGNSCKACGYRGMLDTHHKLI belongs 2.07; to KQTIGNSCKACGYRGMLDTHHKLY, 1.7; to KQTIGNSCKACGYRGMLDTHHKLR, 1.38.
The figure for KQTIGNSCKACGYRGMLDTHHKLS is 1.89; for KQTIGNSCKACGYRGMLDTHHKLV it is 2.35; for KQTIGNSCKACGYRDMLDTHHKLC it is 2.94.
Consider KQTIGNSCKACGYREMLDTHHKLC, for which the protein stability index stood at 2.24.
To KQTIGNSCKACGYRYMLDTHHKLC belongs 2.59; to KQTIGNSCKACGYRRMLDTHHKLC, 2.72; to KQTIGNSCKACGYRSMLDTHHKLC, 2.12.
With KQTIGNSCKACGYRHMLDTHHKLC, the protein stability index worked out at 3.1.
The figure for KQTIGNSCKACGYRVMLDTHHKLC is 2.12; for KQTIGNSCKACAYRGMLDTHHKLC it is 1.37.
To KQTIGNSCKACEYRGMLDTHHKLC belongs 2.93.
The figure for KQTIGNSCKACIYRGMLDTHHKLC is 2.29; for KQTIGNSCKACMYRGMLDTHHKLC it is 2.76; for KQTIGNSCKACTYRGMLDTHHKLC it is 2.5.
Consider KQTIGNSCKACKYRGMLDTHHKLC, for which the protein stability index was determined as 3.06.
Consider KQTIGNSCKACQYRGMLDTHHKLC, for which the protein stability index came to 2.54.
To KQTIGNSCKACNYRGMLDTHHKLC belongs 2.25; to KQTIGNSCKACGYRGDLDTHHKLC, 4.72; to KQTIGNSCKACGYRGVLDTHHKLC, 3.27.
As for KQTIGNSCKACGYRGFLDTHHKLC, the protein stability index turned out to be 2.58.
To KQTIGNSCKACGYRGPLDTHHKLC belongs 4.45; to KQTIGNSCKACGYRGMLDTHHYLC, 2.73; to KQTIGNSCKACGYRGMLDTHHCLC, 4.4.
The figure for KQTIGNSCKACGYRGMLDTHHILC is 2.37; for KQTIGNSCKACGYRGMLDTHHMLC it is 3.09; for KQTIGNSCKACGYRGMLDTHHGLC it is 2.52.
KQTIGNSCKACGYRGMLDTHHVLC: the protein stability index stood at 2.77.
To KQTIGNSCKACGYRGMLDTHHFLC belongs 2.46.
Take KQTIGNSCKACGYRGMLDTHHPLC: the protein stability index was determined as 3.79.
The figure for KQTIGNSCKACGYRGMLDTHHHLC is 3.37.
The figure for KQTIGNSCVACGYRGMLDTHHKLC is 3.13; for KQTIGNSCWACGYRGMLDTHHKLC it is 2.89; for KQTIGNSCAACGYRGMLDTHHKLC it is 3.57.
The figure for KQTIGNSCCACGYRGMLDTHHKLC is 3.97; for KQTIGNSCSACGYRGMLDTHHKLC it is 2.88.
KQTIGNSCRACGYRGMLDTHHKLC: the protein stability index worked out at 2.79.
The figure for KQTIGNSCYACGYRGMLDTHHKLC is 2.61.
To KQTIGNSCKACGYRGMLDTHCKLC belongs 3.17; to KQTIGNSCKACGYRGMLDTHNKLC, 3.25.
To KQTIGNSCKACGYRGMLDTHGKLC belongs 3.17; to KQTIGNSCKACGYRGMLDTHRKLC, 3.
For the variant KQTIGNSCKACGYRGMLDTFHKLC, the protein stability index came out at 2.07.
The figure for KQTIGNSCKACGYRGMLDTDHKLC is 3.64; for KQTIGNSCKACGYRGMLDTYHKLC it is 2.09; for KQTIGNSCKACGYRGMLDTCHKLC it is 2.75.
The figure for KQTIGNSCKACGYRGMLDTEHKLC is 3.24; for KQTIGNSCKACGYRGMLDTMHKLC it is 1.23; for KQTIGNSCKACGYRGMLDTGHKLC it is 2.56.
To KQTIGNSCKACGYRGMLDTKHKLC belongs 2.61; to KQTIGNSCKACGYRGMLDTRHKLC, 2.28; to KQTIGNSCKACGYRGMLDTSHKLC, 3.17.
Consider KQTIGNSCKACGYRGMLDTIHKLC, for which the protein stability index came out at 2.12.
On to KQTIENSCKACGYRGMLDTHHKLC, for which the protein stability index stood at 4.09.
Regarding KQTIRNSCKACGYRGMLDTHHKLC, the protein stability index is 2.53.
As for KQTIQNSCKACGYRGMLDTHHKLC, the protein stability index turned out to be 3.3.
For the variant KQTICNSCKACGYRGMLDTHHKLC, the protein stability index turned out to be 3.
The figure for KQTIKNSCKACGYRGMLDTHHKLC is 3.26; for KQTIGNSCKACGSRGMLDTHHKLC it is 3.37.
For the variant KQTIGNSCKACGWRGMLDTHHKLC, the protein stability index worked out at 2.45.
The figure for KQTIGNSCKACGVRGMLDTHHKLC is 2.91; for KQTIGNSCKACGGRGMLDTHHKLC it is 2.75; for KQTIGNSCKACGNRGMLDTHHKLC it is 3.46.
To KQTIGNSCKALGYRGMLDTHHKLC belongs 2.28.
Regarding KQTIGNSCKAGGYRGMLDTHHKLC, the protein stability index was determined as 1.69.
For the variant KQTIGNSCKADGYRGMLDTHHKLC, the protein stability index came to 1.7.
To KQTIGNSCKANGYRGMLDTHHKLC belongs 1.94.
The figure for KQTIGNSCKAKGYRGMLDTHHKLC is 1.88.
Turning to KQTIGNSCKAQGYRGMLDTHHKLC, the protein stability index came out at 2.26.
For KQTIGNSCKATGYRGMLDTHHKLC, the protein stability index was 1.56.
To KQTIGNSCKAPGYRGMLDTHHKLC belongs 1.92.
